Measured values published in patent US20140271651A1 (AbbVie / Abbott, published 2014).

T1: GP73-hFc (human GP73 amino acids 63 to 400 fused at the C-terminus to human IgG1 Fc) (human)
T1 construct: Expressed in HEK293F, CHO or HepG2 cells; the host is named under assay; also called HEK expressed GP73-hFc; CHO expressed GP73-hFc
T1 chain: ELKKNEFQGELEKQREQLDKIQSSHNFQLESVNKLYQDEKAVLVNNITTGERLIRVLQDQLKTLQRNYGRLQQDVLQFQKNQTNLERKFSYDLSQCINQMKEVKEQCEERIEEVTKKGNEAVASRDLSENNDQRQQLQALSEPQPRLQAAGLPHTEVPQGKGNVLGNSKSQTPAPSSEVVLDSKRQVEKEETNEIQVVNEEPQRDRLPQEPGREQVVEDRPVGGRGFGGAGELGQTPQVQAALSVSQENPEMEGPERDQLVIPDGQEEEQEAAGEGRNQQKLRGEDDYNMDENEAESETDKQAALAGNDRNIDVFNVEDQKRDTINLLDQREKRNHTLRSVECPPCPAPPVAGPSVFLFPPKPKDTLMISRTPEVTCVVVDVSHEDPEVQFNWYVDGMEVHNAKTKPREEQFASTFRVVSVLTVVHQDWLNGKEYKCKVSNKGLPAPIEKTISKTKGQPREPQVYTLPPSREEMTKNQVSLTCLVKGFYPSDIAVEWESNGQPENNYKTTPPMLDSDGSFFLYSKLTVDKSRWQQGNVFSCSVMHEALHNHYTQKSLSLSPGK

B1: anti-GP73 monoclonal antibody 1B-4863 (antibody, V domains shown)
VH: QVQLKESGPGLVAPSQSLSITCTVSGFSLTSYGVHWVRQSPGKGLEWLGVIWTGGSTNYNSALMSRLSISKDNSESQVFLKVNSLQTDDTGMYYCARDPGTDYFDYWGQGTTLTVSS
VL: DIVMTQSHKFMSTSIGDRVSISCKASQDVSIDVSWYQQKPGQSPTLLIYSASYRYIGVPDRFTGSGSGTAFTFTISSVQAEDLAIYYCQQHFTTPLTFGAGTKLELKR
notes: Biotin labelled in some assays; also called mAb 1B-4863; 1B-4863-Bt
B2: anti-GP73 monoclonal antibody 1B-4971 (antibody, V domains shown)
VH: QVQLQQSGPALVKPGASVKMSCKASGYTFTNYVIHWVKQKPGQGLERIGYIWPYNDGTKFNEKFKGKATLTSDKSSSTAYMELSSLTSEDSAVYYCSSQQLAYWGQGTTLTVSS
VL: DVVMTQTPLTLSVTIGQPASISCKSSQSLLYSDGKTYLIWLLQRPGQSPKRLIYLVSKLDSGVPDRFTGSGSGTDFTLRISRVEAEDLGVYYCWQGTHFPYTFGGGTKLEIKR
notes: Biotin labelled in some assays; also called mAb 1B-4971; 1B-4971-Bt
B3: anti-GP73 monoclonal antibody 1B-3440 (antibody, V domains shown)
VH: EVQLVETGGGLVQPKGSLKLSCAASGFTFNTNAMNWVRQAPGKGLEWVARIRTKRYNYTTFYADSVKDRFTISRDDSQSMLFLQMNNLKTEDTAMYYCVTGGTGTFDYWGQGTTLTVSS
VL: EIVLTQSPTTMPASPGEKVTFTCSASSGISSNYLHWYQLKPGFSPKLLIYRTSNLASGVPARFSGGGSGTSYSLTIGTMEAEDVATYYCQQGFSIPLTFGAGTKLELKR
notes: Biotin labelled in some assays; also called mAb 1B-3440; 1B-3440-Bt

Columns and labels:
bovine serum albumin [1] = molecular target: T2, bovine serum albumin (bovine, UniProt P02769 25-607); test: EIA, supernatant 1:25 captured on sheep anti-mouse IgG Fc, BSA in place of antigen
T2 construct: also called BSA
T2 sequence (P02769 25-607 limits assumed): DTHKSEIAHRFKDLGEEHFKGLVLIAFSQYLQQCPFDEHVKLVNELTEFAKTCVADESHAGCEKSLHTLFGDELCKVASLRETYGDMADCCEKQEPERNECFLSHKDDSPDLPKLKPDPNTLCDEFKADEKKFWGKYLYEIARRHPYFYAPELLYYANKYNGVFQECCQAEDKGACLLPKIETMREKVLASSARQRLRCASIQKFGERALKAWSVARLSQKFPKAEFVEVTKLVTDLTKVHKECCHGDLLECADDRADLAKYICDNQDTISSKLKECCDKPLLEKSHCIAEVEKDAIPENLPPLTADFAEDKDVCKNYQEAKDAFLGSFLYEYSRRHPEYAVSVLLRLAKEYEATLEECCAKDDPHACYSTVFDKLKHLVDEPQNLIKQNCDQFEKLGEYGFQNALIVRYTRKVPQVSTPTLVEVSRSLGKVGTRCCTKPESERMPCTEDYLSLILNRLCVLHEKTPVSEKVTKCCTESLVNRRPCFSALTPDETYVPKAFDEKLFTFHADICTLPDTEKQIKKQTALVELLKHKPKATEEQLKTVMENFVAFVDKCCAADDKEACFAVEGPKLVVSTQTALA
Protocol: (§1) Cell supernatant samples were analyzed for anti-GP73 antibodies by EIA. Sheep anti-mouse IgG Fc (Jackson Immunoresearch) was coated on 96 well micro-titer EIA plates at 1 μg/mL. After the capture reagent was coated on the solid phase, it was removed and the plates were blocked using a BSA/PBS block solution. The wells were washed with distilled water and cell supernatants were added to the blocked plates and allowed to incubate at room temperature for at least one hour. A mouse monoclonal antibody 14H4-23 (Drexel University) was used a positive control. The anti-mouse IgG Fc captured the anti-GP73 mouse antibody from the supernatant. Following the incubation, the supernatants were washed off using distilled water. An irrelevant mouse-human chimeric antibody was added to all wells and incubated at room temperature for 30 min to block any captured mouse antibodies that react with the human IgG Fc fusion protein linked to the GP73 antigen. The wells were washed with distilled water and GP73-hFc was added to the plates at 200 ng/mL and incubated for 30 min. Following this incubation, the antigen was washed from the plates using distilled water. Biotin labeled goat anti-GP73 was added to the plates at 200 ng/mL and incubated for 30 min at room temperature. The plates were washed and streptavidin-HRPO (Jackson Immunoresearch) (diluted to approximately 200 ng/mL) was added to the plates and allowed to incubate for 30 min. The plates were washed with distilled water and OPD substrate was used as the chromagen to generate signal. Plates were read at 492 nm and the results were analyzed.
(§2) Positive clones were expanded to 24 well plates in IMDM supplemented with 10% FBS and HT supplement. Following 5-14 days growth, the 24 well cultures were evaluated by EIA in the same manner as previously described, except the supernatant samples were titrated against GP73-hFc and BSA to eliminate non-specific protein binders. Once again the clones generating signal at least 3 times greater than background were considered positive and selected for further evaluation.

[2] = molecular target: T1, GP73-hFc (human GP73 amino acids 63 to …); test: SPR Biacore 2000, mAb captured on rabbit anti-mouse IgG, HEK GP73-hFc analyte 0.412-100 nM, 1:1 fit
Protocol: First, an approximately 13,000-15,000 RU rabbit anti-mouse IgG Capture Biosensor was created by amine-coupling rabbit anti-mouse IgG antibody (GE Healthcare) to a CM5 biosensor chip (GE Healthcare) via EDC/NHS/ethanolamine chemistry provided in an Amine Coupling Kit (GE Healthcare) after pre-treating the biosensor with duplicate injections of 100 mM HCl, 50 mM NaOH, and 0.1% SDS. Purified GP73 antibody and antigen (HEK GP73-hFc) were diluted into a running buffer (hereinafter “running buffer”) composed of HBS-EP buffer (GE Healthcare) supplemented with 0.1% BSA and 0.1% CM-Dextran. Each GP73 antibody was diluted to 1 μg/mL. The GP73-hFc antigen was diluted to concentrations of 0.412 to 100 nM using a 3-fold dilution series assuming an oligomeric molecular weight of 490 kDa (Abbott Laboratories).
The GP73-hFc antigen program was as follows. After equilibrating the rabbit anti-mouse IgG Capture Biosensor for 3 min at 5 μL/minute with running buffer, GP73 antibody (7-14 μL) was injected over individual flow cells with one flow cell being left blank as a reference flow cell. The flow cells were washed with running buffer for 3 min at a flow rate of 60 μL/min. 150 μL of HEK293 expressed GP73-hFc antigen at a random concentration was injected across the biosensor. The biosensor was subsequently re-equilibrated with running buffer for 5 min at a flow rate of 60 μL/minute. All biosensor surfaces were regenerated with one 30 μL injection of 10 mM glycine, pH 1.7 (GE Healthcare), at a flow rate of 10 μL/minute. All concentrations of HEK293 expressed antigen were tested in duplicate. The binding kinetics (association and dissociation) were monitored via sensorgrams during antigen injection and running buffer re-equilibration. The sensorgrams were double-referenced and fit to a 1:1 binding model using Scrubber 2.0 software (BioLogic Software Pty Ltd., Australia) to determine association and dissociation rates, as well as overall KD. Standard errors of determined values are reported in parentheses with respect to the smallest number place value.

bovine serum albumin [3] = molecular target: T2, bovine serum albumin; test: sandwich EIA, rabbit anti-GP73 coated 1 ug/mL, BSA background, supernatant 1:125, HRP goat anti-mouse IgG Fc
Protocol: as §1
The 24 well cultures were then evaluated by EIA for their ability to form a sandwich with the rabbit anti-GP73 used as a capture reagent coated directly on the solid phase. The same EIA protocol previously described was used, except rabbit anti-GP73 antibody was coated at 1 μg/mL, the GP73-hFc was tested at 200 ng/mL, and a HRP labeled goat anti-mouse IgG FC antibody was used as the conjugate reagent to generate signal.

[4] = molecular target: T1, GP73-hFc (human GP73 amino acids 63 to …); test: EIA, supernatant 1:25 captured on sheep anti-mouse IgG Fc, GP73-hFc, biotin goat anti-GP73
Protocol: as §1, §2

[5] = molecular target: T1, GP73-hFc (human GP73 amino acids 63 to …); test: EIA, supernatant mAb captured on sheep anti-mouse IgG Fc, GP73-hFc 200 ng/mL, biotin goat anti-GP73/streptavidin-HRPO; background 0.06
Protocol: as §1

Binder	BSA Background OD (A492) (bovine serum albumin [1])	Kd [2]	koff [2]	kon [2]	BSA Background OD (A492) (bovine serum albumin [3])	GP73-hFc OD (A492) [4]	OD (A492) [5]
B1	0.06 OD (A492)	0.12 nM	0.00025 s⁻¹	2.06e+06 M⁻¹ s⁻¹	0.1 OD (A492)	1.61 OD (A492)	1.44 OD (A492)
B2	0.1 OD (A492)	≤ 0.002 nM		3.9e+06 M⁻¹ s⁻¹	0.1 OD (A492)	2.1 OD (A492)	1.79 OD (A492)
B3	0.09 OD (A492)	0.091 nM	0.00018 s⁻¹	1.98e+06 M⁻¹ s⁻¹	0.12 OD (A492)	1.51 OD (A492)	1.46 OD (A492)
